Measured values taken from patent US20150125458A1 (Janssen / Centocor, published 2015).
Positions count from the first letter of the chain named.

T1: human CCL17 (human, UniProt Q92583 24-94)
T1 construct: Biotinylated in the ELISA screens; also called huCCL17; Bt-huCCL17
T1 sequence: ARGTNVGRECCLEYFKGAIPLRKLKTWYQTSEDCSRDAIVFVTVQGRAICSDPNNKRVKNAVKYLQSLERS

T2: cyno CCL17 (Macaca fascicularis (cyno), UniProt Q8HYP9 24-94 (rhesus entry))
T2 construct: Biotinylated in the ELISA screens; also called cCCL17; Macaca fascicularis CCL17
T2 sequence: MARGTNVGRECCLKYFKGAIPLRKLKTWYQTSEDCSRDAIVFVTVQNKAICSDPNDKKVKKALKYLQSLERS

B1: C17F319 Fab variant W100a to F (Fab, V domains shown)
VH: EVQLVQSGAEVKKPGESLKISCKGSGYSFTSYWIGWVRQMPGKGLEWMGIIDPSDSDTRYSPSFQGQVTISADKSISTAYLQWSSLKASDTAMYYCARVGPADVFDSFDYWGQGTLVTVSS
VL: DIVMTQSPDSLAVSLGERATINCKSSQSVLLSPWNSNQLAWYQQKPGQPPKLLIYGASTRESGVPDRFSGSGSGTDFTLTISSLQAEDVAVYYCQQYYLIPSTFGQGTKVEIK
notes: also called W→F
B2: C17F319 Fab variant W100a to I (Fab, V domains shown)
VH: B1 VH with F105I
VL: B1 VL
notes: also called W→I
B3: C17F319 Fab variant W100a to Y (Fab, V domains shown)
VH: B1 VH with F105Y
VL: B1 VL
notes: also called W→Y
B4: C17F319 Fab variant W100a to R (Fab, V domains shown)
VH: B1 VH with F105R
VL: B1 VL
notes: also called W→R
B5: C17F319 Fab variant W100a to T (Fab, V domains shown)
VH: B1 VH with F105T
VL: B1 VL
notes: also called W→T

Molecular target: T1, human CCL17
Assay: ranking Fab ELISA with bt-human and bt-cyno CCL17

Binding result, binds:
B1
B2
B3

Molecular target: T2, cyno CCL17
Assay: ranking Fab ELISA with bt-human and bt-cyno CCL17

Binding result, binds:
B1
B2
B4
B5
B3
